Legend:
[1] = target: T1, human serum albumin (human, UniProt P02768 25-609); assay: SPR, Biacore 3000; construct captured by anti-CH1 antibody, HSA as analyte, 1:1 model
T1 construct: Bought reagent; also called HSA
Experimental: (§1) The (A26Fab-645Fv)₂-Fc samples were captured to the sensor chip surface using either a human Fe-specific goat F(ab′)₂ (Jackson ImmunoResearch, 109-006-098) or an in-house generated anti-human CH1 monoclonal antibody. Covalent immobilisation of the capture antibody was achieved by standard amine coupling chemistry.
(§2) Kinetic binding analysis by SPR was conducted to assess the interactions of human serum albumin (HSA) to the (A26Fab-645Fv)₂-Fc fusion, when captured using either anti-Fc or anti CH1 antibody.

[2] = target: T1, human serum albumin; assay: SPR, Biacore 3000; construct captured by anti-Fc F(ab')2, HSA as analyte, 1:1 model
Experimental: as §1, §2

[3] = target: T1, human serum albumin; assay: SPR (BIAcore), HSA as analyte

Kd [1]: 0.97 nM
koff [1]: 6e-05 s⁻¹
kon [1]: 62000 M⁻¹ s⁻¹
Kd [2]: 1.88 nM
koff [2]: 7.14e-05 s⁻¹
kon [2]: 38000 M⁻¹ s⁻¹
Kd [3]: 0.97 nM
Stoichiometry [3]: 0.55
koff [3]: 6e-05 s⁻¹
kon [3]: 62100 M⁻¹ s⁻¹
B1: (A26Fab-645Fv)2-Fc (bispecific antibody)
heavy: not shown
light: DIQMTQSPSSLSASVGDRVTITCRATQSIYNALAWYQQKPGKAPKLLIYNANTLHTGVPSRFSASGSGTDSTLTISSLQPEDFATYYCQQYYDYPLTFGGGTKVEIKRTVAAPSVFIFPPSDEQLKSGTASVVCLLNNFYPREAKVQWKVDNALQSGNSQESVTEQDSKDSTYSLSSTLTLSKADYEKHKVYACEVTHQGLSSPVTKSFNRGECSGGGGSGGGGSDIVMTQSPSSVSASVGDRVTITCQSSPSVWSNFLSWYQQKPGKAPKLLIYEASKLTSGVPSRFKGSGSGTDFTLTISSLQPEDFATYYCGGGYSSISDTTFGGGTKVEIKRMHEQKLISEEDL
notes: Tested as HEK293 supernatant; also called (FabFv)2Fc; (A26-645Fv)2-Fc

Reference: patent US20160333105A1 (UCB, published 2016)
